Measurements reported in patent publication CN1905899A (dated 2007).

Biological target: T1, EphA2 on cells (MDA-MB-231, MCF-10A, A549, MCF-7 EphA2 transfectants, prostate cancer tissue) (human, UniProt P29317 24-976)
T1 construct: whole, on cells; The other cells are human cell lines; also called EphA2受体
Test: immunofluorescence staining of cells

T1 sequence (P29317 24-976): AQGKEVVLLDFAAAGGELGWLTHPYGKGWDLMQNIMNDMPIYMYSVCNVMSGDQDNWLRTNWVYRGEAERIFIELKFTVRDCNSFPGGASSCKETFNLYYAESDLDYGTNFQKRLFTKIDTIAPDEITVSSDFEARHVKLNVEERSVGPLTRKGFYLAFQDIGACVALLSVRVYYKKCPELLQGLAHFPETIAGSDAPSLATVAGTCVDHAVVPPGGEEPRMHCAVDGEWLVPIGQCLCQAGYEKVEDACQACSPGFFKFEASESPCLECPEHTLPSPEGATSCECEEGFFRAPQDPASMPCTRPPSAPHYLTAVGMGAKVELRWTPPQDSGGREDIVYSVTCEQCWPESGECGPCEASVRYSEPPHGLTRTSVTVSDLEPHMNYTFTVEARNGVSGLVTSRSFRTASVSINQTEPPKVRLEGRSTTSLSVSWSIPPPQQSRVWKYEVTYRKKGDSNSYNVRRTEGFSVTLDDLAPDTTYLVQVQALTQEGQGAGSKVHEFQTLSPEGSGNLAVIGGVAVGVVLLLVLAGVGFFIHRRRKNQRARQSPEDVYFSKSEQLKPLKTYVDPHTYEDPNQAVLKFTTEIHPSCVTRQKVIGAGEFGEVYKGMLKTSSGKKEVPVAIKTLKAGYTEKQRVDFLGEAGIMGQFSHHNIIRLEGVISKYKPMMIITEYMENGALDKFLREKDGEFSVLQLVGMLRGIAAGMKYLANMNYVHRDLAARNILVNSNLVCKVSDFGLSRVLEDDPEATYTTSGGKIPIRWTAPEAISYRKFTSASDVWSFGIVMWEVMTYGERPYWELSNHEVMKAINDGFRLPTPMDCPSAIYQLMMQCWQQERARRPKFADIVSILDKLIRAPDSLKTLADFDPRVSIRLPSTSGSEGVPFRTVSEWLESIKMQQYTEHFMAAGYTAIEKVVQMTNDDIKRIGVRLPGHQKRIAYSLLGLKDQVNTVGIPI

B1: EA2 anti-EphA2 monoclonal antibody (hybridoma strain EA2.31, ATCC PTA-4380) (antibody, V domains shown)
VH: DVKLVESGGGLVKPGGSLKLSCAASGFTFSSYTMSWVRQTPEKRLEWVATISSGGTYTYYPDSVKGRFTISRDNAKNTLYLQMSSLKSEDTAMYYCTREAIFTYWGQGTLVTVSA
VL: DIKMTQSPSSMYASLGERVTITCKASQDINNYLSWFQQKPGKSPKTLIYRANRVDGVPSRFSGSGSGQDYSLTISSLEYEDMGIYYCLKYDEFPYTFGGGTKLEIK
notes: Mouse hybridoma monoclonal
Q: Does B1 bind?
A: binds
